test system: cortical stem cell clones; experiment: Clonal growth of cortical stem cells with added soluble growth factors (without feeder cells); type: cell-based, mouse; details: factor added at 10-50 ng/ml to serum-free medium with FGF2, no feeder cells
Procedure: Embryonic cerebral cortices and adult SVZ were dissected and dissociated as described (18-20). Single cells were plated into poly-l-lysine-coated 6-well plates (Costar) at clonal density (2000-4000 cells/well) and cultured in basal serum-free medium consisting of DMEM, B27, N2, NAC and 10 ng/ml FGF2 (19,20). To test the effects of soluble growth factors (PDGF, CNTF, TGFβ, IGF1, IL1, IL6, G-CSF, M-CSF, GM-CSF, LIF, BDNF, Steel factor, VEGF or EGF), each factor was added to serum-free medium with FGF2 at a range of 10-50 ng/ml, and clonal growth (cell number and generation of neurons and glia) was assessed (without co-cultured feeder cells). LIF and VEGF were also tested in combination, each added at 10 ng/ml into serum-free medium, with and without FGF2.

Molecule | duplication of the effect of endothelial co-culture on clonal growth
CNTF: soluble growth factor (protein, UniProt P26441 1-200, looked up) Ciliary neurotrophic factor: MAFTEHSPLTPHRRDLCSRSIWLARKIRSDLTALTESYVKHQGLNKNINLDSADGMPVASTDQWSELTEAERLQENLQAYRTFHVLLARLLEDQQVHFTPTEGDFHQAIHTLLLQVAAFAYQIEELMILLEYKIPRNEADGMPINVGDGGLFEKKLWGLKVLQELSQWTVRSIHDLRFISSHQTGIPARGSHYIANNKKM | none duplicated the result we see from endothelial co-cultures
M-CSF: soluble growth factor (protein, UniProt P09603 33-554, looked up) Macrophage colony-stimulating …: EEVSEYCSHMIGSGHLQSLQRLIDSQMETSCQITFEFVDQEQLKDPVCYLKKAFLLVQDIMEDTMRFRDNTPNAIAIVQLQELSLRLKSCFTKDYEEHDKACVRTFYETPLQLLEKVKNVFNETKNLLDKDWNIFSKNCNNSFAECSSQDVVTKPDCNCLYPKAIPSSDPASVSPHQPLAPSMAPVAGLTWEDSEGTEGSSLLPGEQPLHTVDPGSAKQRPPRSTCQSFEPPETPVVKDSTIGGSPQPRPSVGAFNPGMEDILDSAMGTNWVPEEASGEASEIPVPQGTELSPSRPGGGSMQTEPARPSNFLSASSPLPASAKGQQPADVTGTALPRVGPVRPTGQDWNHTPQKTDHPSALLRDPPEPGSPRISSLRPQGLSNPSTLSAQPQLSRSHSSGSVLPLGELEGRRSTRDRRSPAEPEGGPASEGAARPLPRFNSVPLTDTGHERQSEGSFSPQLQESVFHLLVPSVILVLLAVGGLLFYRWRRRSHQEPQRADSPLEQPEGSPLTQDDRQVELPV | none duplicated the result we see from endothelial co-cultures
BDNF: soluble growth factor (protein, UniProt P23560 19-247, looked up) Neurotrophic factor BDNF …: APMKEANIRGQGGLAYPGVRTHGTLESVNGPKAGSRGLTSLADTFEHVIEELLDEDQKVRPNEENNKDADLYTSRVMLSSQVPLEPPLLFLLEEYKNYLDAANMSMRVRRHSDPARRGELSVCDSISEWVTAADKKTAVDMSGGTVTVLEKVPVSKGQLKQYFYETKCNPMGYTKEGCRGIDKRHWNSQCRTTQSYVRALTMDSKKRIGWRFIRIDTSCVCTLTIKRGR | none duplicated the result we see from endothelial co-cultures
G-CSF: soluble growth factor (protein, UniProt P09919 31-207, looked up) Granulocyte …: TPLGPASSLPQSFLLKCLEQVRKIQGDGAALQEKLVSECATYKLCHPEELVLLGHSLGIPWAPLSSCPSQALQLAGCLSQLHSGLFLYQGLLQALEGISPELGPTLDTLQLDVADFATTIWQQMEELGMAPALQPTQGAMPAFASAFQRRAGGVLVASHLQSFLEVSYRVLRHLAQP | none duplicated the result we see from endothelial co-cultures

Source: patent US7901936B2, “Method for stimulating self-renewal of neural stem cells and enhancing neurogenesis” (Albany Medical College, priority 2004, dated 2011)
